Experimental data from paper PMC8092405 (Proceedings of the National Academy of Sciences of the …, 2021).

Target: human G protein-coupled receptor 182 (GPR182) (human, UniProt O15218 1-404)
Sequence (O15218 whole entry): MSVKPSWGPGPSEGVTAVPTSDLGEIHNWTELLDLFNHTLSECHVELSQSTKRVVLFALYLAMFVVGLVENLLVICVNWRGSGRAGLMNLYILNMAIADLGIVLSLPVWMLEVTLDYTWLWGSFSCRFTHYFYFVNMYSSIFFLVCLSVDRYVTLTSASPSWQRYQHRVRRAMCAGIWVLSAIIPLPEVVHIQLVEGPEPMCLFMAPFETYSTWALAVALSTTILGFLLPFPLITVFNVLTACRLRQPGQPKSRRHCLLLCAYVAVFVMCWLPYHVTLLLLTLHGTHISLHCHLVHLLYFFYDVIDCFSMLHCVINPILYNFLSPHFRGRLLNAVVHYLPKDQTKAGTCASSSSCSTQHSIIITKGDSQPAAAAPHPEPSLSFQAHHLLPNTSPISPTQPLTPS

| Ki | Binder |
| --- | --- |
| 9 nM | human CXCL13, unlabeled (ligand) VLEVYYTSLRCRCVQESSVFIPRRFIDRIQILPRGNGCPRKEIIVWKKNKSIVCVDPQAEWIQRMMEVLRKRSSSTLPVPVFKRKIP |
| 260 nM | human CCL19, unlabeled (ligand) GTNDAEDCCLSVTQKPIPGYIVRNFHYLLIKDGCRVPAVVFTTLRGRQLCAPPDQPWVERIIQRLQRTSAKMKRRSS |
